# Data reported in article PMC4596477, “Interaction of Myosin Phosphatase Target Subunit (MYPT1) with Myosin Phosphatase-RhoA Interacting Protein (MRIP): A Role of Glutamic Acids in the Interaction” (PLoS ONE, 2015).
# T1: MRIP^724-878 (Homo sapiens, UniProt Q6WCQ1)
# T1 construct: MRIP^724-878 (residues 724–878; CC2-CC4); made in house; host or cells: Escherichia coli BL21 (DE3)
# T1 sequence (Q6WCQ1 725-879): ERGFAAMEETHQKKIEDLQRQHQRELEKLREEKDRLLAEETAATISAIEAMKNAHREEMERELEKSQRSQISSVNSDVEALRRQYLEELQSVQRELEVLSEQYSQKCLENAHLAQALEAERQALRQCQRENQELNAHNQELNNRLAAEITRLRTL
# B1: MRIP^724-837 (myosin phosphatase-RhoA interacting protein, residues 724–837; CC2-CC3) (domain or fragment, UniProt Q6WCQ1 724-837, looked up)
# chain: CERGFAAMEETHQKKIEDLQRQHQRELEKLREEKDRLLAEETAATISAIEAMKNAHREEMERELEKSQRSQISSVNSDVEALRRQYLEELQSVQRELEVLSEQYSQKCLENAHL
# notes: Monomer-dimer equilibrium in solution by AUC; source: E. coli BL21 (DE3), purified (chitin beads, C8 reversed-phase HPLC)
# B2: MRIP^724-837: recombinant tag-free MRIP peptide, residues 724–837; CC2-CC3 (protein)
# chain: CERGFAAMEETHQKKIEDLQRQHQRELEKLREEKDRLLAEETAATISAIEAMKNAHREEMERELEKSQRSQISSVNSDVEALRRQYLEELQSVQRELEVLSEQYSQKCLENAHL
# modifications: left off: chitin-binding domain (IMPACT kit, pTYB12), N-terminal, cleaved
# notes: recombinant tag-free MRIP peptide, residues 724–837; CC2-CC3
# B3: MRIP^724-878 (myosin phosphatase-RhoA interacting protein, residues 724–878; CC2-CC4) (domain or fragment, UniProt Q6WCQ1 724-878, looked up)
# chain: CERGFAAMEETHQKKIEDLQRQHQRELEKLREEKDRLLAEETAATISAIEAMKNAHREEMERELEKSQRSQISSVNSDVEALRRQYLEELQSVQRELEVLSEQYSQKCLENAHLAQALEAERQALRQCQRENQELNAHNQELNNRLAAEITRLRT
# notes: Tight homodimer in solution by AUC; the forward primer puts an NdeI ATG before the codons GAGCGAGGGTTTGCAGCAATG; source: E. coli BL21 (DE3), purified (chitin beads, C8 reversed-phase HPLC)
# B4: MRIP^545-878: recombinant tag-free MRIP peptide, residues 545–878; CC1-CC4 (protein)
# chain: WAEFRPIQQALAQERVGGVGPADTHEPLRPEAEPGELERERARRREERRKRFGMLDATDGPGTEDAALRMEVDRSPGLPMSDLKTHNVHVEIEQRWHQVETTPLREEKQVPIAPVHLSSEDGGDRLSTHELTSLLEKELEQSQKEASDLLEQNRLLQDQLRVALGREQSAREGYVLQATCERGFAAMEETHQKKIEDLQRQHQRELEKLREEKDRLLAEETAATISAIEAMKNAHREEMERELEKSQRSQISSVNSDVEALRRQYLEELQSVQRELEVLSEQYSQKCLENAHLAQALEAERQALRQCQRENQELNAHNQELNNRLAAEITRLRT
# modifications: left off: chitin-binding domain (IMPACT kit, pTYB12), N-terminal, cleaved
# notes: recombinant tag-free MRIP peptide, residues 545–878; CC1-CC4
# Tests used:
# MRIP^724-878 = molecular target: T1, MRIP^724-878; experiment: AUC interaction of MYPT1 peptides (CC, LR and LR mutants) with MRIP^724-878; format: binding; conditions: s*lg(s*) graphs, pH 7.4, 20°C; for main peak position of mixture with MRIP^724-878: excess mutant LR peptide for R992D/R993D and E996K, 50 μM each for others; for binding affinity toward MRIP^724-878, LR mutants: MRIP^724-878 with mutant LR peptide, 50 μM each, compared with wild-type LR
# Description: To determine the minimal MRIP-binding region of MYPT1, AUC was employed to examine interactions between sub-domains of CCLR, CC (residues 924–990) and LR (residues 991–1030) with MRIP^724-878 (Fig 4A). CC is the putative coiled coil domain and LR contains 16 upstream amino acid residues (residues 991–1006) in addition to the leucine repeat (residues 1007–1028). MRIP^724-878 was chosen because of its good fit to a single component, single-species model. […] Global fitting of the mixture to a two-component model produced a good fit and the RMSD of the fit was 0.010 (Fig 4B; Fitting of CC).
# The coiled coil is a common protein-protein interaction domain. The MRIP peptides in this study have putative coiled coil domains and are α-helical. In contrast, the MYPT1 peptide, LR is not α-helical even though it contains the leucine repeat. Thus, we hypothesized that charged residues of MYPT1 might participate in the MYPT1/MRIP interaction with its leucine residues. We generated various LR peptides representing mutations in charged residues (Fig 6A) and examined their bindings to MRIP^724-878 (Fig 6B).
# Fig 6 Glutamic acids within LR enhance the MRIP-binding affinity. (A) Amino acid sequences of the wild-type LR (WT-LR) and mutant LR peptides. Charged residues are in bold, the leucine repeat is in Italic, and substitution mutations are underlined. (B) Time derivative s*lg(s*) graphs: Line, MRIP^724-878 alone (50 μM); filled-in circles, original mixture of MRIP^724-878/each mutant LR peptide (50 μM each except for R992D/R993D and E996K whose mixtures consisted of excess amount of the mutant LR peptides); open circles, a three-fold dilution of the original mixture. The molar mass of the complex differs slightly from that of MRIP^724-878 dimer (37.9 kDa vs 37.4 kDa), and thus the shift in the main peak position is not easily discernable in many cases.
# (§1) The cDNA fragment encoding MRIP peptides were amplified using a full-length MRIP cDNA as a template with the following primer pairs: MRIP^545-878, 5’-[…]/5’[…]; MRIP^724-878, 5’-[…]/5’-[…]; MRIP^724-837, 5’-[…]/5’-[…]. The PCR products were ligated into pCR2.1-TOPO using the TA cloning system and sequenced in both directions. The IMPACT™ (Intein Mediated Purification with an Affinity Chitin-binding Tag) Kit (New England BioLabs) was used to express peptides in bacteria to obtain tag-free peptides. The PCR amplicon encoding MRIP peptides were fused in frame to the chitin binding domain of pTYB12 vector utilizing the NdeI/EcoRI restriction sites. The expression vectors for the MYPT1 peptides, CCLR (residues 924–1030), CC (residues 924–990), and LR (residues 991–1030) were constructed as described: In the reference literature, CCLR and LR were named CCLZ and LZ, respectively. Recombinant peptides were produced in Escherichia coli strain BL21 (DE3) and purified using chitin beads according to the manufacturer's protocol. For further purification, the eluent from chitin beads was loaded on a Vydac C8 reversed phase column and subjected to HPLC using an acetonitrile gradient. Purity and identity of the peptides were confirmed by polyacrylamide gel electrophoresis (PAGE) and mass spectrometry. For the mutagenesis study of LR, the wild-type and mutant LR peptides were synthesized, purified by reverse-phase HPLC, and lyophilized to dryness at the peptide core in Boston Biomedical Research Institute.
# Sedimentation velocity experiments were done on a Beckman Instruments Optima XL-I analytical ultracentrifuge equipped with Rayleigh optics. The cells were equipped with sapphire windows and 12 mm charcoal-filled Epon centerpieces. Apparent sedimentation coefficient distribution patterns were computed by the time derivative method. Peptides were dialyzed against 50 mM potassium phosphate buffer (pH 7.4) containing 100 mM KCl, and 1 mM DTT at 4°C overnight and then subjected to AUC at 50,000 rpm and 20°C. […]
# [1] = molecular target: the molecule itself; experiment: AUC; sedimentation velocity of each MRIP peptide alone, three-fold serial dilutions (MRIP^545-878 1.5–13.6 μM, MRIP^724-878 4.7–42.3 μM, MRIP^724-837 7.5–67.1 μM); 50 mM potassium phosphate pH 7.4, 100 mM KCl, 1 mM DTT, 50,000 rpm, 20°C; global fitting with SedAnal; constant of MRIP^724-837: dimer to monomers
# [2] = AUC sedimentation velocity of MRIP peptides alone (molar mass, sedimentation coefficient, oligomeric state); format: physicochemical; conditions: for molar mass: 50 mM potassium phosphate pH 7.4, 100 mM KCl, 1 mM DTT; for concentration dependence of g(s*) curves: MRIP^545-878 1.5–13.6 μM, MRIP^724-878 4.7–42.3 μM, MRIP^724-837 7.5–67.1 μM, pH 7.4, 20°C
# Description: The RMSD of the fit was 0.008.
# as §1
# Sedimentation velocity experiments were done on a Beckman Instruments Optima XL-I analytical ultracentrifuge equipped with Rayleigh optics. The cells were equipped with sapphire windows and 12 mm charcoal-filled Epon centerpieces. Apparent sedimentation coefficient distribution patterns were computed by the time derivative method. Peptides were dialyzed against 50 mM potassium phosphate buffer (pH 7.4) containing 100 mM KCl, and 1 mM DTT at 4°C overnight and then subjected to AUC at 50,000 rpm and 20°C. Molar mass was computed from sedimentation velocity profiles using SedAnal, which uses a nonlinear least-squares curve fitting algorithm to fit data to solutions of the differential equation (the Lamm equation) describing sedimentation. Fits were performed on time difference data to remove the time-independent systematic baseline components. Values of s and D produced by the fitting procedure were substituted into the Svedberg equation to obtain the molar mass of the protein, M: M=RT/(1−ν¯ρ)s20,wo/D20,wo where ρ is the density of the buffer and ν¯ is the partial specific volume of the protein. Sednterp was employed to compute values of ρ and ν¯ from the amino acid sequence.
# CCLR = experiment: AUC interaction of MRIP peptides with MYPT1 peptide CCLR (residues 924–1030); format: binding; conditions: equimolar mixtures (MRIP^545-878 14 μM each; MRIP^724-878 30 μM each; MRIP^724-837 67 μM each) and 3-, 9-fold dilutions, pH 7.4, 100 mM KCl, 20°C
# Protocol: AUC was performed to examine the interactions of MRIP^545-878, MRIP^724-878, or MRIP^724-837 individually with the MYPT1 peptide (residues 924–1030) containing a putative coiled coil domain (CC) and the leucine repeat region (LR), designated as CCLR.
# Fig 3 All MRIP peptides bind to the C-terminal region of MYPT1, CCLR (residues 924–1030). Concentration-normalized time derivative g(s*) graphs of the MRIP peptides by themselves and in equimolar mixtures: Lines, CCLR (30 μM); +, individual MRIP peptides by themselves (MRIP^545-878, 14 μM; MRIP^724-878, 50 μM; MRIP^724-837, 67 μM); black filled-in circles, original equimolar mixtures (MRIP^545-878, 14 μM each; MRIP^724-878, 30 μM each; MRIP^724-837, 67 μM each); open circles, 3-fold dilutions; gray filled-in circles, 9-fold dilutions.
# as §1, with “For the mutagenesis study of LR, the wild-type and mutant LR peptides were synthesized, purified by reverse-phase HPLC, and lyophilized to dryness at the peptide core in Boston Biomedical Research Institute.” left out
# [3] = AUC sedimentation velocity, pH 7.4, 100 mM KCl, 20°C
molecule,measurement,setting,value
"E996K: mutant LR peptide with same length as wild-type, substitutions for charged residues (ERRISKMEEELKMLPDLKADNQRLKDENGALIRVISKLSK)",main peak position of mixture with MRIP^724-878,MRIP^724-878,"shifted to the right, indicating binding"
EtriA: mutant LR in which glutamic acid residues 998–1000 were replaced by alanine (ERRISEMAAALKMLPDLKADNQRLKDENGALIRVISKLSK),"binding affinity toward MRIP^724-878, LR mutants",MRIP^724-878,significantly decreased binding affinity
EtriQ: mutant LR in which glutamic acid residues 998–1000 were replaced by glutamine (ERRISEMQQQLKMLPDLKADNQRLKDENGALIRVISKLSK),"binding affinity toward MRIP^724-878, LR mutants",MRIP^724-878,significantly decreased binding affinity
LR^997-1030: mutant LR peptide shorter than LR in length (MEEELKMLPDLKADNQRLKDENGALIRVISKLSK),"binding affinity toward MRIP^724-878, LR mutants",MRIP^724-878,decreased
LR^1001-1030: mutant LR peptide shorter than LR in length (LKMLPDLKADNQRLKDENGALIRVISKLSK),"binding affinity toward MRIP^724-878, LR mutants",MRIP^724-878,decreased
LR^1007-1028: mutant LR peptide shorter than LR in length (LKADNQRLKDENGALIRVISKL),"binding affinity toward MRIP^724-878, LR mutants",MRIP^724-878,decreased
"R992D/R993D: mutant LR peptide with same length as wild-type, substitutions for charged residues (EDDISEMEEELKMLPDLKADNQRLKDENGALIRVISKLSK)",main peak position of mixture with MRIP^724-878,MRIP^724-878,"shifted to the right, indicating binding"
B1,Kd,[1],21 µM
same,stoichiometry N,[1],2
B2,molar mass,"[2]; AUC sedimentation velocity, SedAnal global fit to monomer-dimer reaction, 7.5–67.1 μM, 20°C, CL 0.95",13.9±0.2 kDa
same,oligomeric state in solution,[2]; [3],a mixture of monomer-dimer
same,"sedimentation coefficient, monomer","[2]; AUC, monomer-dimer model, 7.5–67.1 μM, pH 7.4, 100 mM KCl, 20°C, CL 0.95, min, 1.23, max, 1.31",1.29 S
same,"sedimentation coefficient, dimer","[2]; AUC, monomer-dimer model, 7.5–67.1 μM, pH 7.4, 100 mM KCl, 20°C, CL 0.95, min, 1.88, max, 1.91",1.90 S
same,concentration dependence of g(s*) curves,[2]; AUC,concentration dependence and a reversible interaction
same,binding to CCLR (shift in g(s*) curves),CCLR,bind to CCLR
B3,stoichiometry N,[1],2
B4,molar mass,"[2]; AUC sedimentation velocity, SedAnal global fit to two components (main component), 1.5–13.6 μM, 50,000 rpm, 20°C, CL 0.95, min, 38.1, max, 40.9",39.4 kDa
same,sedimentation coefficient,"[2]; AUC sedimentation velocity, SedAnal global fit, two components (main component), 1.5–13.6 μM, pH 7.4, 100 mM KCl, 20°C, CL 0.95",2.17±0.01 S
same,oligomeric state in solution,[2]; [3],forms a monomer in solution
same,concentration dependence of g(s*) curves,[2]; AUC,no-concentration dependence and the presence of one species in solution
same,binding to CCLR (shift in g(s*) curves),CCLR,bind to CCLR
